Here are results for one substance from article PMC8342802, “A Novel Bacteriocin From Lactobacillus Pentosus ZFM94 and Its Antibacterial Mode of Action” (Frontiers in Nutrition, 2021).

The conditions of series [1]: cited from earlier work. On the procedure: It retained 80.37% of its original antibacterial activity after heating at 80°C for 30 min. The antibacterial activity of pentocin ZFM94 was stable at pH 2–7. […] Pentocin ZFM94 was sensitive to trypsin and pepsin, but not to amylase, lysozyme, lipase, and ribonuclease A. Studies have reported that leuconocin S and carnocin 5 ...

Series [2] is described as follows: binding to lipid II, agar well-diffusion after mixing with lipid II. The class given is cell-based, Micrococcus luteus. Conditions: 10 μm peptide with 20 μm lipid II, 4°C for 1 h, indicator M. luteus 10209. The procedure: Studies have shown that lipid II was the target of nisin ([25]), and the combination of lipid II and nisin can mediate the formation of pores. Nisin and pentocin ZFM94 were mixed with lipid II, respectively. The final concentration of nisin or pentocin ZFM94 was 10 μm, while the concentration of lipid II was 20 μm. The mixture was maintained at 4°C for 1 h. The changes in the antibacterial activity were detected by the agar well-diffusion method. Micrococcus luteus 10209 was used as the indicator. Then, the size of the inhibition zone was observed.
Background: In agar diffusion tests the substance spreads into inoculated agar from a disc or well.

Where no end group is shown, it is not given here. [ ]: non-standard residue; d: D form. Abu = CC[C@H](N)C(=O)O; Dhb = C/C=C(\N)C(=O)O; Dha = C=C(N)C(=O)O

“nisin (I[Dhb]AI[Dha]LC[Abu]PGCK[Abu]GALMGCNMK[Abu]A[Abu]CHCSIHV[Dha]K; thioether (positions not given here); not fully specified (residues 7, 11, 19, 26, 28, bridges); also: lantibiotic: thioether bridges and dehydrated residues, places not given here; UniProt P13068 24-57, looked up)”: the “activity at pH close to 7” value in series [1] is “inactivated”. Moreover, the “antibacterial effect after mixing with lipid II” value in series [2] was “disappeared”.
